This note sets out measurements from the nanobody polyreactivity screen of Harvey et al. (2022).

A short description of this data set: yeast display, Sf9 membrane polyspecificity reagent, FACS + sequencing; frameworks hold sequencing errors. An outline of the steps:
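After 36–48 hours of galactose induction, yeast (Saccharomyces cerevisiae BJ5465) displaying a synthetic nanobody library were stained at 4 °C for 1 hour with 10% biotinylated, detergent-solubilized Sf9 membrane reagent. Streptavidin microbeads enriched the stained cells before FACS sorting into low and high (top ~1%) gates on anti-HA and streptavidin fluorescence. Each clone's polyreactivity label reflects its gate of origin.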
Turning to “QVQLEESGGGLVQAGGSLRLSCAASGIIFATYAMGWYTQAPGKDRELVAAISSGGRTYYADSVKGRFTISRDNAKNTVYFQMNSLKPEDTAVYYCAAKSGGRSSLYNYWGQGTQVTVSS”, the “polyreactivity (PSR sort gate)” value was “high polyreactivity”.

For “QVQLEESGGGLVQAGGSLRLSCAASGIIFSPYAMGWYIQAPWKERELVAAINFSTGRTYYADSVKGRFTISRDNAKNTVYLQMNSLKPEDTAVYYCAAGKYPYVFRGGYDYWGQGTQVTVSS”, the “polyreactivity (PSR sort gate)” value was “low polyreactivity”.

For the sequence “QVQLEESGGGLVQAGGSLRLSCAASGIIFYRSVMGWYRQAPGKERELVAAITGGGSTYYADSVKGRFTISRDNAKNTVYLQMNSLKPEDTAVYYCNADIRAYTVLTGGYIYDYWGQVTQVTVSS”, the “polyreactivity (PSR sort gate)” value was “high polyreactivity”.

With “QVQLEESGGGLVQAGGSLRLSCAASGITFAHYAMGWSRQAPGKDRELVAAISQSGGSTYYADSVKGRFTISRDNAKNTVYLQMNSLKPEDTAVYYCNKYRYPQDDYWGQGTQVTVSS”, the “polyreactivity (PSR sort gate)” value was “high polyreactivity”.

With “QVQLEESGGGLVQAGGSLRLSCAASGITFNQYVMGWYRQAPGKEMELVAAISRSGATTYYADSVKGRFTISRDNAKNTVYLQMNSLKPEDTAVYYCAVRGSVSYTRYGYWGQGTQVTVSS”, the “polyreactivity (PSR sort gate)” value is reported as “high polyreactivity”.

In the case of “QVQLEESGGGLVQAGGSLRLSCAASGITFTLNAMGWYRQAPGKERELVATINRGTGTNYADSVKGRFTISRDNAKYTVYLQMNSLKPEVTAVYYCAADHRGEYDYWGQGTQVTVSS”, the “polyreactivity (PSR sort gate)” value is listed as “low polyreactivity”.

Consider “QVQLEESGGGLVQAGGSLRLSCAASGITFVGNAMGWYRQAPGKERELVAGIRGNGGSTYYADSVKGRFTISRDNAKNTVYLQMHSMNPEDTAVYYCAAAAYYADFDYWGQGTQVTVSS”, for which the “polyreactivity (PSR sort gate)” value is given as “low polyreactivity”.

Turning to “QVQLEESGGGLVQAGGSLRLSCAASGITYYYAMGWYRQAPGKERELVAVITPGVSTNYADSVKGRFTISRDNAKNSVYLHMNSLKPEDTAVYYCATDVQVPCIGRSVYAYEYWGQGTQVTVSS”, the “polyreactivity (PSR sort gate)” value is recorded as “low polyreactivity”.

As for “QVQLEESGGGLVQAGGSLRLSCAASGLICVLYTMGSYRQAPGKERELVATINWGGGNTYYADSVKGRFTISRDNAKNTVYLQMNSLKPEDTAVYYCAAAYTWYGYSQAYYYWGQGTQVTVSS”, the “polyreactivity (PSR sort gate)” value is reported as “low polyreactivity”.

Take “QVQLEESGGGLVQAGGSLRLSCAASGLTLGRYAMGWYRQAPGKERELVAVITGGGSTNYADSVKGRFTISRDNAKNTVYLQMNSLKPEDTAVYSCAVRGGIFQTLSTWYRYYYWGQGTQVTVSS”: the “polyreactivity (PSR sort gate)” value is “high polyreactivity”.

With “QVQLEESGGGLVQAGGSLRLSCAASGRIFAGYAMGWYRQEPGKERELVAAINGSGADTYYADSVKGRFTISRDNAKNTVYLQMNSLKPEDTAVYYCAASPGSQYTGYDYWGQGTQVTVSS”, the “polyreactivity (PSR sort gate)” value is recorded as “low polyreactivity”.

Regarding “QVQLEESGGGLVQAGGSLRLSCAASGRIFGVYAMGWYRQAPGKERELVAAISWSASSTYYADSVKGRFTISRDNAKNTVYLQMNSLKPEDTAVYYCNAEVLGFYELDYWGQGTQVTVSS”, the “polyreactivity (PSR sort gate)” value was “high polyreactivity”.

For “QVQLEESGGGLVQAGGSLRLSCAASGRIFKSYTMGGYRQAPGKERELVAAITKSAASTYYADSVKGRFTISRDNAKNTVYLQMNSLKPVDTAVYYCAASRIGGGKVKFGYWGQGTQVTVSS”, the “polyreactivity (PSR sort gate)” value is “high polyreactivity”.

With “QVQLEESGGGLVQAGGSLRLSCAASGRIFMTYAMGWYRQAPGKERELVAAITRRGGTTYYADSEKARFTISRDNAKNTVYLQMNCLKPEDTAVYYCAPAKPRVISQNIIYDYWGQGTQVTVSS”, the “polyreactivity (PSR sort gate)” value is “high polyreactivity”.

As to “QVQLEESGGGLVQAGGSLRLSCAASGRIFSDYAKGGYRQAPGKERELVATITSGDSTNYADSVKGRFTISRDNAKNTVYLQMNRLKPEDTAVYYCNADRFADYDYWGQGTQVTVSS”, the “polyreactivity (PSR sort gate)” value is “low polyreactivity”.

As to “QVQLEESGGGLVQAGGSLRLSCAASGRIFSPNVRGWYRKATGKERELVAGITSSGGSTYYADSVKGRLTISRDNAKNTVYLQMNSLKPEYTAVYYCAAPWVGTFVSGRGYYWGQGTQVTVSS”, the “polyreactivity (PSR sort gate)” value is listed as “low polyreactivity”.

As for “QVQLEESGGGLVQAGGSLRLSCAASGRIFTRYALGWYRQAPGKERELVAAITGSGGSTYYADSVKGRFTISRDNAKNTVYLQMNSRKPEDTAVYYCATDFYCYRSYNYWGQGTQVTVSS”, the “polyreactivity (PSR sort gate)” value is reported as “high polyreactivity”.

Turning to “QVQLEESGGGLVQAGGSLRLSCAASGRILAKYAMGWYRPAPRKEREFVDAISYSGGSTYYADSVKGRFTISRDNAKNNVYLLMNRLKPEYTAVYYCAASSYVLYRTRKMYFWGQGTQVTVSS”, the “polyreactivity (PSR sort gate)” value was “high polyreactivity”.

“QVQLEESGGGLVQAGGSLRLSCAASGRTFFPYAMGWYRQAPGKERELVAAISHGGRTYYADSVKGRFTISRDNAKNTVYLQMNSLKPEDTAVYYCNALSARSYYWGQGTQVTVSS”: the “polyreactivity (PSR sort gate)” value is listed as “high polyreactivity”.

In the case of “QVQLEESGGGLVQAGGSLRLSCAASGRTFGLYAMGWYRQAPGKERELVAAITRSDGGTNYADSVKGRFTISRDNAKNTVYVQMNSLKPEDTSVYYCAVDLGYVSDVSWYAYEYWGQGTQVTVSS”, the “polyreactivity (PSR sort gate)” value is listed as “low polyreactivity”.

As to “QVQLEESGGGLVQAGGSLRLSCAASGRTFGSNAMGWYRQAPGKERELVAAIRERGGSTYADSVKGRFTISRDNAKNTVYLQMNSLKPEDTAVYYCAADRSVIWSKNYDYWGQGTQVTVSS”, the “polyreactivity (PSR sort gate)” value is recorded as “low polyreactivity”.

As to “QVQLEESGGGLVQAGGSLRLSCAASGRTFGTNAMGWYRQAPGKERELVAAITTNGGRTYYADSVKGRFTISRDNAKNTVYLQMNSLKPEDTAVYYCAKYYQTDTYIYDYWGQGTQVTVSS”, the “polyreactivity (PSR sort gate)” value is “low polyreactivity”.

As to “QVQLEESGGGLVQAGGSLRLSCAASGRTFGYYAMGWYRQAPGKERELVAAISTRSGSTYYADSVKGRFTISRDNAKNTVYLQMISLKPEDTAVYYCAADSYPDYDYWGQGTQVTVSS”, the “polyreactivity (PSR sort gate)” value was “low polyreactivity”.

Turning to “QVQLEESGGGLVQAGGSLRLSCAASGRTFIYYAMGWYRQATGKEREFVAAITKSGGTTYYADSVKGRFTISRHNAKNTVYLQMNSLKPEDTAVYYCAKTTRRGFALYDYWGQGTQVTVSS”, the “polyreactivity (PSR sort gate)” value is on record as “high polyreactivity”.

Consider “QVQLEESGGGLVQAGGSLRLSCAASGRTFRLNVMGWYREAPGKQRELVAAISTRGGDTYYADSVKGRFTISLDNAKNTDYLQMNSLKPEDTALYYCAAEYTYVYDYWGQGTQVTLSS”, for which the “polyreactivity (PSR sort gate)” value is reported as “high polyreactivity”.

For the sequence “QVQLEESGGGLVQAGGSLRLSCAASGRTFRRNAMGWYRQAPGKERELVADISNGDSTKYADSVKGRFTISRDNAKNTVYLQMHSLIPEDTAVYYCNAQRYRVVVYISHGWQTRNYWGQGTQVTVSS”, the “polyreactivity (PSR sort gate)” value is on record as “low polyreactivity”.

Consider “QVQLEESGGGLVQAGGSLRLSCAASGRTFWLYAMGRYRQAPGKEREFVASISSSGDSTYYADSVKGRFTISRDNAKNTVYLQMNSLKPEDTAVYDCAARPSRRYLRNGLDYWGQGTQVTVSS”, for which the “polyreactivity (PSR sort gate)” value is “high polyreactivity”.

With “QVQLEESGGGLVQAGGSLRLSCAASGRTFYYNAMGSSRQAPGKERELVAGITYRGGSTYYADSVKGRFTISRDNAKNTVYLQMNSLKPEDTAVYYCAVKYSWLSRFNYWGLGTQVTVSS”, the “polyreactivity (PSR sort gate)” value is listed as “high polyreactivity”.

Consider “QVQLEESGGGLVQAGGSLRLSCAASGRTLDYYAMGWYRQAPGKERELVASITSGGSTNYADSVKGRFTISRDNAKNTVYLQMNSLKPEDTAVYYCAADSAFYRDVKSNYWGQGTQVTVSS”, for which the “polyreactivity (PSR sort gate)” value is recorded as “low polyreactivity”.

With “QVQLEESGGGLVQAGGSLRLSCAASGRTLRVNAIGWYRQAPGKERELVAANSSGGRTNYADSVKGRFTISRDNAKNTVYLQMNSLKPEDTAVYYCAVDRPRFPSRPPYHKYDYWGQGTQVTVSS”, the “polyreactivity (PSR sort gate)” value is “low polyreactivity”.
